# Biological target: Clostridioides difficile toxin A (Clostridioides difficile, strain not …, UniProt P16154)
# Test: SPR
# Details: both partners purified
Binder,Kd,koff,kon
"A26.8 VHH, wild-type (canonical Cys23-Cys104 disulfide linkage only) (VHH) VHH: QVKLEESGGGLVQAGGSLRLSCAASERTFSRYPVAWFRQAPGAEREFVAVISSTGTSTYYADSVKGRFTISRDNAKVTVYLQMNNLKREDTAVYFCAVNSQRTRLQDPNEYDYWGQGTQVTVSS",16.5 nM,0.0259 s⁻¹,1.57e+06 M⁻¹ s⁻¹
A26.8 VHH with engineered Cys6-Cys119 disulfide linkage (VHH) VHH: QVKLECSGGGLVQAGGSLRLSCAASERTFSRYPVAWFRQAPGAEREFVAVISSTGTSTYYADSVKGRFTISRDNAKVTVYLQMNNLKREDTAVYFCAVNSQRTRLQDPNEYDYWCQGTQVTVSS,12.6 nM,0.0691 s⁻¹,5.5e+06 M⁻¹ s⁻¹
A26.8 VHH with engineered Cys4-Cys118 pair (VHH) VHH: QVKCEESGGGLVQAGGSLRLSCAASERTFSRYPVAWFRQAPGAEREFVAVISSTGTSTYYADSVKGRFTISRDNAKVTVYLQMNNLKREDTAVYFCAVNSQRTRLQDPNEYDYCGQGTQVTVSS,43.4 nM,,
A26.8 VHH with engineered Cys24-Cys86 disulfide linkage (VHH) VHH: QVKLEESGGGLVQAGGSLRLSCCASERTFSRYPVAWFRQAPGAEREFVAVISSTGTSTYYADSVKGRFTISRDNAKVCVYLQMNNLKREDTAVYFCAVNSQRTRLQDPNEYDYWGQGTQVTVSS,43.6 nM,0.0271 s⁻¹,621000 M⁻¹ s⁻¹
A26.8 VHH with engineered Cys4-Cys25 disulfide linkage (VHH) VHH: QVKCEESGGGLVQAGGSLRLSCACSERTFSRYPVAWFRQAPGAEREFVAVISSTGTSTYYADSVKGRFTISRDNAKVTVYLQMNNLKREDTAVYFCAVNSQRTRLQDPNEYDYWGQGTQVTVSS,12.6 nM,0.062 s⁻¹,4.93e+06 M⁻¹ s⁻¹
A26.8 VHH with engineered Cys22-Cys88 disulfide linkage (VHH) VHH: QVKLEESGGGLVQAGGSLRLCCAASERTFSRYPVAWFRQAPGAEREFVAVISSTGTSTYYADSVKGRFTISRDNAKVTVCLQMNNLKREDTAVYFCAVNSQRTRLQDPNEYDYWGQGTQVTVSS,18.7 nM,0.028 s⁻¹,1.5e+06 M⁻¹ s⁻¹
